Measurements taken from patent US6730828B1, “Isolated nucleic acids encoding a wheat glutathione transferase, plants transformed therewith and methods of use thereof” (Aventis Agriculture Limited, priority 1997, dated 2004).

Key:
[1] = GST activity toward herbicide fluorodifen (HPLC-based assay); assay type: biochemical
Description: (§1) The purified isoenzymes were assayed for GST activity toward herbicides using the HPLC-based assays described by Edwards R. and Cole D. J. (Pesticide Biochemistry and Physiology Vol. 54, pp96-104 (1996)) and the results are presented in Table 2. […] These isoenzymes had additional activities as glutathione peroxidases able to reduce linoleic acid hydroperoxide, a major reaction product formed during membrane peroxidation in plants (Williamson and Beverly. J. Cereal Sci. 8, 1988, 155-163).
(§2) To assay the recombinant fusion proteins for GST activity, the E. coli were grown in the presence of IPTG and then pelleted by centrifugation. The bacteria were then lysed by sonication and the protein precipitated using 80% ammonium sulphate. After resuspension and desalting, GSTs were purified by affinity chromatography. The WIC 3 fusion protein was purified using sulphobromophthalein-S-glutathione affinity chromatography (Mozer et al. Biochem. 22, 1983, 1068-1072) while the other WIC fusion proteins were purified using glutathione-agarose (Mannervik and Guthenberg. Methods Enzymol. 77 1981, 231-235).The purified enzymes were then assayed for GST activities toward herbicides (Table 3) and GST activities toward non-herbicide substrates and glutathione peroxidase activities toward organic hydroperoxides (Table 4).
(§3) A polyclonal antiserum was raised in a rabbit to a mixture of TaGST1-2 and TaGST1-3. When tested against crude extracts from safener-treated wheat shoots the antiserum recognised both the 25 kDa TaGST1 subunit and the 26 kDa safener-inducible TaGST2 and TaGST3 subunits. The antiserum was then used in conjunction with the antiserum raised to TaGST1-1 to immuno screen the cDNA library prepared from fenchlorazole ethyl treated wheat shoots as described in example 1. Duplicate lifts were taken from the plated out library and the first blot screened with the antiserum raised against TaGST1-2 and TaGST1-3. The second blot was screened with the antiserum raised to TaGST1-1. Five plaques were identified from the first blot which were absent from the second blot corresponding to cDNAs encoding TaGST2 or TaGST3 like polypeptides and theses clones were purified and the respective plasmids sequenced. […] The other three clones ICC. ICP and ICV had identical DNA sequences (SEQ ID No. 17) and predicted amino acid sequence (SEQ ID No. 18). GST ICJ was sub-cloned into the pET 11a vector after using PCR to introduce a Nde 1 restriction site into the translation start site, using the primer 5′ AGGTAGTTACATATGGCCGGAGGA 3′ (SEQ ID No. 19) in the amplification. following sub-cloning, the sequence of GST ICJ was re-checked to ensure no PCR induced errors had been introduced. The recombinant GST ICJ was then expressed in E. coli and purified by S-hexylglutathione affinity chromatography. The purified GST ICJ was assayed for activities as a GST (Table 3) and as a glutathione peroxidase (Table 4). […] GST ICV was finally expressed as the respective beta-galactosidase fusion protein using the Bluescript plasmid and assayed for GST activity (Table 3 ) and glutathione peroxidase activity (Table 4) in crude bacterial lysates. The specific activity of GST ICV toward these substrates was then calculated by I) subtracting the low levels of GST and GPOX activity present due the endogenous activities in the E. coli and ii) determining the proportion of protein in the lysate present as recombinant GST ICV from SDS-PAGE analysis, by densitometry analysis of polypeptides stained with Coomassie blue.

[2] = GST activity toward herbicide fenoxaprop-ethyl (HPLC-based assay); assay type: biochemical
Description: as §1, §2, §3

[3] = GST activity toward herbicide metolachlor (HPLC-based assay); assay type: biochemical
Description: as §1, §2, §3

[4] = GST activity toward crotonaldehyde; assay type: biochemical; details: recombinant wheat GST, affinity purified; ± standard error
Description: as §2

[5] = Glutathione peroxidase activity toward cumene hydroperoxide; assay type: biochemical; details: recombinant wheat GST, affinity purified; ± standard error (n = 3)
Description: as §2, §3

[6] = GST activity toward benzyl isothiocyanate; assay type: biochemical; details: recombinant wheat GST, affinity purified; ± standard error
Description: as §2

[7] = GST activity toward CDNB; assay type: biochemical
Description: as §1
To confirm that TaGST1 encoded a GST, it was expressed as a fusion protein with beta-galactosidase using the pBluescript plasmid in E. coli strain SOLR. TaGST1 clones were inoculated into LB liquid medium and were grown overnight at 37/C on all orbital shaker in the presence of IPTG. Bacteria were then pelleted by centrifugation, lysed by sonication and assayed for GST activity toward CDNB and analysed by SDS-PAGE and Western blotting using the anti-TaGSTI-I serum. With all six TaGST1 clones, GST activity toward CDNB could be determined in the crude extracts in the range 30-50 nkat/mg crude lysate.
as §2
as §3, with “The specific activity of GST ICV toward these substrates was then calculated by I) subtracting the low levels of GST and GPOX activity present due the endogenous activities in the E. coli and ii) determining the proportion of protein in the lysate present as recombinant GST ICV from SDS-PAGE analysis, by densitometry analysis of polypeptides stained with Coomassie blue.” left out

[8] = test system: wheat shoots; assay: Enhancement of GST isoenzyme expression in wheat shoots by safener fenchlorazole-ethyl; assay type: in vivo, Triticum aestivum L. var. Hunter; details: for % enhancement by safener: fenchlorazole-ethyl treated (safened) versus unsafened wheat shoots; for Effect of safener fenchlorazole-ethyl on expression: wheat shoots, in words
Description: Wheat seeds (Triticum aestivum L. var. Hunter) were imbibed in a 10 mg/l solution of the herbicide safener fenchlorazole-ethyl and then grown in an environmental growth room with further root-applied watering treatments of 5 mg/l fenchlorazole ethyl applied as required. At 10 days after imbibing, the shoot tissue was harvested and extracted prior to precipitation of the protein with ammonium sulphate (80% saturation). The total protein extract was then applied in the presence of 1 M ammonium sulphate to a phenyl-Sepharose column. The bound GSTs were then recovered, firstly by reducing the ammonium sulphate concentration to 0 M to yield the polar GST fraction, which represented 61% of the recovered activity toward 1-chloro-2,4-dinitrobenzene (CDNB). The remaining 39% of the GST activity was then recovered by adding ethylene glycol (50% v/v) to the running buffer to yield the hydrophobic GST fraction. […] The component polypeptides in the active fractions were then analysed by silver staining after resolution by sodium dodecyl sulphate polyacrylamide gel electrophoresis (SDS-PAGE). It was concluded that in fenchlorazole-ethyl-treated wheat the polar GSTs were composed of 25 kDa and 26 kDa polypeptides, while the hydrophobic fraction contained 25 kDa, 26 kDa and 24 kDa polypeptides. Further analysis by reversed-phase HPLC confirmed the subunit compositions (FIG. 2). Based on the combined analyses by Q-sepharose, HPLC and SDS-PAGE these GST polypeptides were named as described in Table 1, which also contains details of how these subunits associate together to form the active dimers found in plants and the relative abundance of these subunits in extracts from unsafened and fenchlorazole-ethyl treated ([…]) plants.

[9] = recombinant wheat GST expressed in E. coli, affinity purified, ± standard error
[10] = recombinant wheat GST expressed in E. coli, affinity purified
[11] = isoenzymes purified from fenchlorazole-ethyl-treated wheat shoots

B1: WIC 1: recombinant type I wheat GST, SEQ ID No. 3, amino acid SEQ ID No. 4 (protein)
chain: MAAPAVKVYGWAMSPFVARALLCLEEAGVEYELVPMSREAGDHRQPDFLARNPFGQVPVLEDGDLTIFESRAVARHVLRKHKPELLGSGSPESAAMVDVWLEVEAHQHQTPAGTIVMQCILTPFLGCQRDQAAIDENAAKLTNLFDVYEARLSASRYLAGEAVSLADLSHFPFMRYFMDTEYASLVEERPHVKAWWEEFKASPAAKRVTEFMPPNFGFGKKAEK
modifications: Triticum aestivum L.
[1]; [9]
  GST activity toward fluorodifen: 0.136 ± 0.011 nkat.mg^−1
[2]; [9]
  GST activity toward fenoxaprop-ethyl: 0.050 ± 0.010 nkat.mg^−1
[3]; [9]
  GST activity toward metolachlor: 0.315 ± 0.003 nkat.mg^−1
[4]
  GST activity toward crotonaldehyde: 7.1 ± 0.7 nkat.mg^−1
[5]
  Glutathione peroxidase activity toward cumene hydroperoxide: 18.6 ± 0.5 absorbance change at 340 nm.mg^−1
[6]
  GST activity toward benzyl isothiocyanate: 18.0 ± 3.75 nkat.mg^−1
[7]; [10]
  GST activity toward CDNB: 406.5 nkat.mg^−1

B2: TaGST1-2: wheat GST isoenzyme, heterodimer of TaGST1 and 26 kDa TaGST2 subunits (SEQ ID No. 2/SEQ ID No. 16) (protein)
chain 1: MAGEKGLVLLDFWVSPFGQRVRIALAEKGLPYEYAEEDLMAGKSDRLLRANPVHKKIPVLLHDGRAVNESLIILQYLEEAFPDAPALLPSDPYARAQARFWADYVDKKVYDCGSRLWKLKGEPQAQARAEMLDILKTLDGALGDKPFFGGDKFGFVDAAFAPFTAWFHSYERYGEFSLPEVAPKIAAWAKRCGERESVAKSLYSPDKVYDFIGLLKKKYGIE
chain 2: MAGDGELKLLGVWTSPFVIRVRVVLNLKSLPYEYVEESLGSKSALLLGSNPVHQSVPVLLHGGRPVNESQVIVQYIDEVWAGAGPSVLPADPYERATARFWAAYVDDKVGSAWTGMLFSCKTEEERAEAVSRAVAALETLEGAFAECSKGKAFFGGDAIGFVDVVLGGYLGWFGAIDKIIGRRLIDPARTPLLARWEERFRAADAAKGVVPDDADKMLEFLPTVLAWIAGKAK
modifications: heterodimer; Triticum aestivum L.
[1]; [11]
  GST activity toward fluorodifen: 0.38 nkat.mg^−1
[8]
  % enhancement by safener: Only
  Effect of safener fenchlorazole-ethyl on expression: only observed following treatment with the safener
[2]; [11]
  GST activity toward fenoxaprop-ethyl: 0.61 nkat.mg^−1
[3]; [11]
  GST activity toward metolachlor: 0.25 nkat.mg^−1
[7]; [11]
  GST activity toward CDNB: 1,441 nkat.mg^−1

B3: TaGST1: recombinant wheat GST from TaGST1 cDNA (SEQ ID No. 1, amino acid SEQ ID No. 2) expressed in E. coli (protein)
chain: B2 chain 1
modifications: Triticum aestivum L.
[1]; [9]
  GST activity toward fluorodifen: 2.0 ± 0.1 nkat.mg^−1
[2]; [9]
  GST activity toward fenoxaprop-ethyl: 0 nkat.mg^−1
[3]; [9]
  GST activity toward metolachlor: 0.127 ± 0.014 nkat.mg^−1
[4]
  GST activity toward crotonaldehyde: 3.7 ± 0.3 nkat.mg^−1
[5]
  Glutathione peroxidase activity toward cumene hydroperoxide: 0.7 ± 0.1 absorbance change at 340 nm.mg^−1
[6]
  GST activity toward benzyl isothiocyanate: 11.8 ± 0 nkat.mg^−1
[7]; [10]
  GST activity toward CDNB: 1970 nkat.mg^−1

B4: TaGST1-3: wheat GST isoenzyme, heterodimer of TaGST1 and 26 kDa TaGST3 subunits (SEQ ID No. 2/SEQ ID No. 18) (protein)
chain 1: B2 chain 1
chain 2: MAGGEELKLLGWWAPGVSPYVLRAQMALAVKGLSYDYLPEDRWSTSDLLIASNPVYKKVPVLIHNGRPVCESLLILEYLDDAVGLAGNGKPILPADPYSRAVARFWAAYVNDKLFPSCTGILKTTKQEERAGKMEETLSGLRHLEAVMAECSEGEAEAPFFGGDAIGFLDIALGCYLPWFEAAGRLAGLGPIIDPARTPKLAAWAERFSVAEPIKALLPGVDKLEEYITTALYPKWNIAVTGN
modifications: heterodimer; Triticum aestivum L.
[1]; [11]
  GST activity toward fluorodifen: 0.38 nkat.mg^−1
[8]
  % enhancement by safener: Only
  Effect of safener fenchlorazole-ethyl on expression: only observed following treatment with the safener
[2]; [11]
  GST activity toward fenoxaprop-ethyl: 0.44 nkat.mg^−1
[3]; [11]
  GST activity toward metolachlor: 0.28 nkat.mg^−1
[7]; [11]
  GST activity toward CDNB: 1,700 nkat.mg^−1
